The conditions of data set [1]: cited from earlier work.
In data set [2] the test system is LLC tumor. Briefly: Tumor growth of LLC tumor-bearing mice treated with IR or anti-PD-L1 plus test agent. Format: in vivo, mouse. Particulars: LLC tumor-bearing B6 mice; for Tumor growth: influence on the therapeutic effect of IR and PD-L1 blockade: agent combined with 20 Gy IR or anti-PD-L1. As for the experimental part:
(§1) Tumor models and treatments. 1×10^6 MC38, LLC, or B16-SIY tumor cells were subcutaneously injected into the flank of mice. On day 10 after tumor inoculation, tumors were either irradiated with one dose of 20 Gy or mice received sham treatment. For anti-PD-L1 treatment experiments, 200 μg anti-PD-L1 (10F.9G2) or isotype control was given by i.p. every three days for a total of four times starting on day 10 after tumor inoculation. For type I IFN blockade experiments, 200 μg anti-IFNAR1 were intratumorally injected on days 0 and 2 after irradiation. For CD4 or CD8 T cell depletion experiments, 200 μg anti-CD4 or anti-CD8 mAb was delivered four times by i.p. injection every 3 days starting 1 day before therapies. Artemin-neutralizing antibody was delivered i.t. at 1 μg/mouse starting on day of irradiation, every 2 days for 7 doses. For Ter-cell depletion, anti-ter119 was injected i.p. at 20 μg/mouse every 2 days for 4 doses. For Ter-cell or artemin treatment groups, mice were administered 1×10^7 purified Ter cells i.v. every other day for a total of three doses, or mice were treated with 0.5 μg/mouse artemin i.t. every other day starting on day 0 of therapies throughout the studies. For EPO treatment groups, mice were treated with 20 U/mouse EPO i.v. every other day throughout the studies, starting on day 0 of the therapies. IFN-γ was administered through intrasplenic injection on day 15 post tumor implantation at 2 μg/mouse for 1 dose. LOXO-292 was administered by oral gavaging at 100 μg/mouse/day throughout the entire studies, starting on day 0 of the therapies. Spleens were harvested on day 20 or at indicated times post-inoculation for analysis of spleen size or splenic cells. Tumor size was monitored and calculated with the formula for area (length×width).

The subject of data set [3] is p-AKT and p-ERK in LLC cells. The experiment in a line: Western blot of p-AKT and p-ERK in LLC cells treated with ARTN and LOXO-292. It is filed as cell-based, mouse. Particulars: 100 ng/mL ARTN and 1 μg/mL LOXO-292. As to the method: FIGS. 61A-61C. Tumor growth of LLC tumor-bearing mice treated with LOXO-292 and either IR (FIG. 61A) or anti-PD-L1 (FIG. 61B). (FIG. 61C) p-AKT and p-ERK in LLC cells treated with 100 ng/mL ARTN and 1 μg/mL LOXO-292 were detected by western blot. Representative data are shown from two or three experiments. Data are represented as mean±SD. *p<0.05, **p<0.01, and ***p<0.001.
Western Blot Analysis. Whole-cell protein was extracted with Triton-X100 buffer (150 mM sodium chloride, 50 mM Tris, 1% Triton-X100; pH 8.0) with proteinase inhibitors (Thermo Scientific®). Immuno-blotting analyses were performed as previously described (Hou, Y., Liang, H., Rao, E., Zheng, W., Huang, X., Deng, L., Zhang, Y., Yu, X., Xu, M., Mauceri, H., et al. (2018). Non-canonical NF-kappaB Antagonizes STING Sensor-Mediated DNA Sensing in Radiotherapy. Immunity 49, 490-503 e494). The amount of loaded protein was normalized to GAPDH (60004-1-Ig, Proteintech Group) or actin (8226, Abcam).
For orientation: In western blotting, separated proteins are transferred to a membrane and probed.

Data set [4] deals with LLC tumor. Briefly: Spontaneous lung metastasis (number of lung nodules) in LLC tumor-bearing mice. Format: in vivo, mouse. As to conditions: murine LLC model; combined with IR or anti-PD-L1. As to the method: FIG. 55. Number of lung nodules in LLC tumor-bearing mice at the end of tumor growth measurement: anti-PD-L1 treatment. B6 mice were inoculated with LLC cells. On day 10 post inoculation, tumor-bearing mice were treated with anti-PD-L1. Splenectomy was performed 1 day before treatments. Representative data are shown from two or three experiments conducted with 3-5 mice or samples per group. Data are represented as mean±SD. **p<0.01 and ***p<0.001.
FIGS. 62A-62B. Number of lung modules. B6 mice were inoculated with LLC cells. On day 10 post inoculation, tumor-bearing mice were treated with either IR (FIG. 62A) or anti-PD-L1 (FIG. 62B) plus LOXO-292. Splenectomy was performed 1 day before treatments. […] Representative data are shown from two or three experiments conducted with 3-5 mice or samples per group. Data are represented as mean±SD. *p<0.05, **p<0.01, and ***p<0.001.
Tumor models and treatments. 1×10^6 MC38, LLC, or B16-SIY tumor cells were subcutaneously injected into the flank of mice. On day 10 after tumor inoculation, tumors were either irradiated with one dose of 20 Gy or mice received sham treatment. For anti-PD-L1 treatment experiments, 200 μg anti-PD-L1 (10F.9G2) or isotype control was given by i.p. every three days for a total of four times starting on day 10 after tumor inoculation. […] Tumor size was monitored and calculated with the formula for area (length×width).

The test system of data set [5] is Ter-cells. Briefly: Spleen size, splenocytes and splenic Ter-cells by flow cytometry. It is filed as in vivo, mouse. As to the method:
as §1
(§2) Flow Cytometry. […] Single cell suspensions were blocked with anti-FcR (2.4G2, BioXcell) and then stained with fluorescence-labeled antibodies. Flow cytometry was performed on BD LSR Fortessa at The University of Chicago core facility and data were analyzed with FlowJo software.
In general terms: A flow cytometer gives signals particle by particle.

For data set [6], the system named is Ter-cells. Briefly: Splenic cells by flow cytometry after intrasplenic IFN-γ injection in LLC-bearing mice. Format: in vivo, mouse. As for the experimental part: FIG. 27. Apoptosis of splenic Ter-cells as analyzed by flow cytometry at indicated times post-injection. B6 mice were inoculated with LLC on day 0 and recombinant mouse IFN-γ was administered through intrasplenic injection on day 15. Representative data are shown from two or three experiments conducted with 3-5 mice per group. Data are represented as mean±SD. *p<0.05, **p<0.01, and ***p<0.001.
FIG. 28A-28C. Mechanism of IR-induced Ter-cell reduction in spleen. (FIG. 28A) Apoptosis of splenic CD45^+ immune cells, MDSCs, and CD8^+ T cells as analyzed by flow cytometry at indicated time post IFN-γ intrasplenic injection. (FIG. 28B) The percentage of CD8^+ T cells were analyzed by flow cytometry at indicated time post IFN-γ intrasplenic injection. (FIG. 28C) […] expression on splenic Ter-cells on day 3 post IFN-γ intrasplenic injection. Representative data are shown from two or three experiments conducted with 3-5 mice or samples per group. Data are represented as mean±SD. *p<0.05, **p<0.01, and ***p<0.001.
as §1, with “IFN-γ was administered through intrasplenic injection on day 15 post tumor implantation at 2 μg/mouse for 1 dose. LOXO-292 was administered by oral gavaging at 100 μg/mouse/day throughout the entire studies, starting on day 0 of the therapies. Spleens were harvested on day 20 or at indicated times post-inoculation for analysis of spleen size or splenic cells.” left out
as §2

The test system of a further data set is artemin. The experiment in a line: Artemin levels in serum (ELISA) and artemin mRNA in spleen (qPCR). It is filed as in vivo, mouse. Particulars: LLC tumor-bearing mice treated with IR or anti-PD-L1 plus EPO i.v. As to the method: ELISA. Tumor tissues were homogenized in PBS with protease inhibitor followed by the addition of Triton X-100. Serum was collected on day 20 post-tumor inoculation or at indicated times. The concentration of artemin or TGF-β was measured with artemin ELISA Kit (E03A0032 for mouse and E01A0032 for human, BlueGene Biotechnology), or TGF-β1 Mouse ELISA Kit (BMS608-4, Invitrogen).
Real-time PCR assay. mRNA from tumor cells or splenocytes was isolated using TRIzol according to the manufacturer's instructions (Invitrogen). cDNA was synthesized from pd(N)6-primed mRNA reverse transcription using M-MLV superscript reverse transcriptase. Real-time PCR kits (SYBR Premix Ex Taq™, DRR041A) were purchased from Takara Bio Inc. PCR was performed using a CFX96 (Bio-Rad). mRNA specific for the housekeeping gene GAPDH was measured and used as an internal control. The primers for artemin were 5′-TACTGCATTGTCCCACTGCCTCC-3′ (SEQ ID NO: 1) for the upstream primer (UP) and 5′-TCGCAGGGTTCTTTCGCTGCACA-3′ (SEQ ID NO: 2) for the downstream primer (DP); GAPDH: 5′-AGACCAGCCTGAGCAAAAGA-3′ (SEQ ID NO: 3) for UP and 5′-CTAGGCTGGAGTGCAGTGGT-3′ (SEQ ID NO: 4) for DP.
Background: ELISA stands for enzyme-linked immunosorbent assay.

Where [7] appears, read: LLC tumor-bearing mice, intra-splenic injection.

`CO[C@]1(C(=O)N[C@@H](C)c2ccc(-n3cc(F)cn3)nc2)CC[C@H](c2nc(C)cc(Nc3cc(C)[nH]n3)n2)CC1` [BLU-677]: the “Outcomes for patients with RET fusion-positive cancers” value in data set [1] was “improved outcomes”.

On to `COc1ccc(CN2C3CC2CN(c2ccc(-c4cc(OCC(C)(C)O)cn5ncc(C#N)c45)cn2)C3)cn1` [LOXO-292], for which, in the data set on LLC tumor [2] (IR or anti-PD-L1 plus EPO plus agent), the “Tumor growth: therapeutic effect of IR and PD-L1 blockade in the context of EPO treatment” value is “restored the therapeutic effects of IR and PD-L1 blockade”. Further, in the data set with LLC tumor [2], the “Tumor growth: influence on the therapeutic effect of IR and PD-L1 blockade” value is “enhanced the effects of IR and PD-L1 blockade”. Also, in data set [3], the “Artemin-induced activation of downstream signaling (p-AKT, p-ERK)” value was “inhibited artemin-induced activation of downstream signaling”. Also, the “Spontaneous lung metastasis: influence on the effects of IR and PD-L1 blockade” value with LLC tumor [4] is “promoted the effects of IR and PD-L1 blockade”. The “Outcomes for patients with RET fusion-positive cancers” value in data set [1] was “improved outcomes”.

With IFN-α, the “Ter-cell accumulation in spleen after intra-tumor injection” value with Ter-cells [5] (WT mice bearing LLC or B16-SIY tumors, i.t.) is given as “reduced Ter-cell accumulation”.

Consider “rhEPO: Recombinant human erythropoietin used for the treatment of anemia in cancer patients”, for which, in data set [1] (several clinical trials), the “Survival benefit in cancer patients treated by RT” value is reported as “detrimental effects”.

B1: IFN-γ: Recombinant mouse IFN-γ (315-05) from Peprotech, intrasplenic injection (protein, UniProt P01580 23-155, looked up)
Interferon gamma: HGTVIESLESLNNYFNSSGIDVEEKSLFLDIWRNWQKDGDMKILQSQIISFYLRLFEVLKDNQAISNNISVIESHLITTFFSNSKAKKDAFMSIAKFEVNNPQVQRQAFNELIRVVHQLLPESSLRKRKRSRC
On to B1, for which, in the data set on Ter-cells [6] (setting [7]), the “Abundance of CD8+ T cells in spleen” value is “restored the abundance”; the “Apoptosis of immune cells, including MDSCs and CD8+ T cells” value is on record as “did not change apoptosis levels”. The “Apoptosis of splenic Ter-cells” value in the data set with Ter-cells [6] (LLC tumor-bearing mice, intra-splenic injection, 3 days after treatment) is on record as “increased apoptosis of Ter-cells”. In addition, the “MHC I expression on Ter-cells” value with Ter-cells [6] (day 3 post intrasplenic injection) is given as “enhanced the MHC I expression”.

B2: EPO: recombinant erythropoietin (959-ME) from R&D Systems (protein, UniProt P07321 27-192, looked up)
Erythropoietin: APPRLICDSRVLERYILEAKEAENVTMGCAEGPRLSENITVPDTKVNFYAWKRMEVEEQAIEVWQGLSLLSEAILQAQALLANSSQPPETLQLHIDKAISGLRSLTSLLRVLGAQKELMSPPDTTPPAPLRTLTVDTFCKLFRVYANFLRGKLKLYTGEVCRRGDR
Take B2: in the data set with LLC tumor [2], the “Tumor growth: influence on the therapeutic effect of IR and PD-L1 blockade” value was “inhibited the therapeutic effect of both IR and PD-L1 blockade”. Also, the “Level of secreted artemin in serum under IR or PD-L1 blockade” value with artemin is “diminished the effects of IR and PD-L1 blockade”. Further, the “Ter-cell accumulation under IR or PD-L1 blockade” value in the data set on Ter-cells [5] (LLC tumor-bearing mice treated with IR or anti-PD-L1 plus EPO i.v.) is “diminished the effects of IR and PD-L1 blockade”. Moreover, the “Spleen size and Ter-cell accumulation in naive mice” value in the data set on Ter-cells [5] (naive B6 mice, i.v. and s.c. routes) is “increased spleen size and Ter-cell accumulation”.

The values are drawn from patent US20230270861A1, “Inhibitors of the Artemin Pathway for Treatment of Cancer” (The University of Chicago, priority 2020, published 2023).
